In one experiment the target is T1, recombinant human ERα (human, UniProt P03372 1-595).
T1 construct: also called estrogen receptor alpha
T1 sequence (looked up): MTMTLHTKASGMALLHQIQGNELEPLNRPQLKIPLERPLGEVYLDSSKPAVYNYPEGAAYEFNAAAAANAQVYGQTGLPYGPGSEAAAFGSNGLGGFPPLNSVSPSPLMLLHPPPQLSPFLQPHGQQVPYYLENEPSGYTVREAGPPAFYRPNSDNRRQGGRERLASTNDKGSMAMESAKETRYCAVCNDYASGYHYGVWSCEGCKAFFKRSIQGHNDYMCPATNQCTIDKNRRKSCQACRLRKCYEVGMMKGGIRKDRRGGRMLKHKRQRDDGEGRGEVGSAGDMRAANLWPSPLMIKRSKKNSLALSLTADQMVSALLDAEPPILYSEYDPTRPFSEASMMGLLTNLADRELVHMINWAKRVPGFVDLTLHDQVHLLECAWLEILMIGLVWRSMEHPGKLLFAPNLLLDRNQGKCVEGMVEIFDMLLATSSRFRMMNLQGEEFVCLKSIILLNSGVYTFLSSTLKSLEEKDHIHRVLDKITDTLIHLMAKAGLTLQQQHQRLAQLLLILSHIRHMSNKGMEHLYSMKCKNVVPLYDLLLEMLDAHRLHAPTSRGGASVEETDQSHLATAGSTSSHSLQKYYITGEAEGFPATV
The experiment in a line: EMSA with consensus ERE probe, recombinant human ERα and extract of IEBP transfectant; supershift with anti-hsp27 antibody.

For another experiment, the target named is T2, GST protein alone (UniProt P08515 1-218 = GST).
T2 construct: Control in the GST pull-down; also called GST alone
T2 sequence (P08515 whole entry): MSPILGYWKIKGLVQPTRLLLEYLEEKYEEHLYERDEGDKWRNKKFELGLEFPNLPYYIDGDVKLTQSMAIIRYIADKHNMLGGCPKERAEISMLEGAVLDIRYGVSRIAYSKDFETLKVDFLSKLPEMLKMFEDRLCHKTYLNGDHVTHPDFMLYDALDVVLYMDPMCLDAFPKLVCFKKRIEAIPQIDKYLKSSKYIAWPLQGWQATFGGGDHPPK
In words: GST pull-down from protein extracts of cells overexpressing IEBP, SDS-PAGE and blot with anti-hsp27 antibody.

Method for GST protein alone: Postnuclear extracts were applied to the GST beads and incubated for 1 hour. The loaded GST-extract mixture was then washed repetitively (5×) with PBS buffer containing 5 mM DTT and 1 mM PMSF and resuspended in 2×SDS sample buffer and boiled for 5 minutes. Denatured proteins were resolved on 4-20% SDS-PAGE gel, transferred to a nitrocellulose membrane, probed with appropriate antibody (obtained from Santa Cruz) and visualized by ECL.
Protein extracts of cells overexpressing IEBP were incubated with a GST-receptor ligand-binding domain fusion protein representing the ER. Control assays were employed using a glucocorticoid receptor (GR)-fusion protein or GST protein alone.

B1: intracellular estradiol binding protein (IEBP) of New World primate B95-8 cells (other)
chain: MTERHVPFSLLQSPSWDPFRDWYPHSHLFDQAFGMPRLPEEWSQWFGTSSWPGYVRPLPPTTVEGPAVAAPAYSRALNQQLSSGVSETADRWRVSLDVNHFAPEELTVKTKDGVVEITGKHEERQDEHGFISRCFTRKYSLPPGVDPTQVSPSLSPEGTLTVDAPMSKPATQSNEITIPVTFESRAQLGGPEAAKSDRSAAK
notes: also called hsp27-like IEBP; hsp 27-related IEBP
Consider B1, for which the binding result with recombinant human ERα is reported as “binds”; in the experiment with GST protein alone it was “no binding”.
